# Patent US6583108B1, “Human bikunin” (Bayer Corporation, dated 2003)
# Like-named read-outs stand apart in the source and are kept apart here.
# B1: native human placental bikunin isolated from human placenta (protein)
# chain: ADRERSIHDFCLVSKVVGRCRASMPRWWYNVTDGSCQLFVYGGCDGNSNNYLTKEECLKKCATVTENATGDLATSRNAADSSVPSAPRRQDSEDHSSDMFNYEEYCTANAVTGPCRASFPRWYFDVERNSCNNFIYGGCRGNKNSYRSEEACMLRCFRQQENPPLPLGSK
# modifications: probably glycosylated at the asparagine residue at position 30
# B2: recombinant placental bikunin (1-170) from baculovirus/Sf9 expression (protein)
# chain: B1 chain
# modifications: probably glycosylated at the asparagine residue at position 30
# B3: synthetic placental bikunin (7-64) (other)
# chain: IHDFCLVSKVVGRCRASMPRWWYNVTDGSCQLFVYGGCDGNSNNYLTKEECLKKCATV
# B4: placental bikunin 98-159 expressed in yeast (construct #4) (protein)
# chain: DMFNYEEYCTANAVTGPCRASFPRWYFDVERNSCNNFIYGGCRGNKNSYRSEEACMLRCFRQ
# B5: placental bikunin 101-159 expressed in yeast (construct #3) (protein)
# chain: NYEEYCTANAVTGPCRASFPRWYFDVERNSCNNFIYGGCRGNKNSYRSEEACMLRCFRQ
# Assays:
# [1] = target: Factor XIIa; test: enzyme inhibition kinetics; first preparation of bikunin (7-64)
# [2] = target: Factor XIa; test: enzyme inhibition kinetics
# [3] = target: Factor XIa; test: enzyme inhibition kinetics, E(OBz)AR-AMC substrate
# [4] = target: bovine trypsin (bovine) (UniProt P00760)
# Chain of bovine trypsin (bovine) (P00760 24-246): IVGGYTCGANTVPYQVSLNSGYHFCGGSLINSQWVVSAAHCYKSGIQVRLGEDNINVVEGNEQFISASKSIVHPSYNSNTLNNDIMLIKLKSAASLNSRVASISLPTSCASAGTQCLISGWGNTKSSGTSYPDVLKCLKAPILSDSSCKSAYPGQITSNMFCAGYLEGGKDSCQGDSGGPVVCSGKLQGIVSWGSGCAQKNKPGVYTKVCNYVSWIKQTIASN
# [5] = target: bovine trypsin (bovine) (UniProt P00760); remark: listed apart in the source
# [6] = target: bovine trypsin (bovine) (UniProt P00760); remark: listed apart in the source
# [7] = target: bovine pancreatic kallikrein (bovine); test: enzyme inhibition kinetics; Sf9-derived bikunin (1-170)
# [8] = target: Factor XIa; test: as above
# [9] = target: Tissue Factor VIIa; test: as above
# [10] = target: bovine trypsin (bovine) (UniProt P00760); remark: listed apart in the source
# [11] = target: bovine pancreatic kallikrein (bovine); test: enzyme inhibition kinetics; first preparation of bikunin (7-64)
# [12] = target: human neutrophil elastase (human, UniProt P08246); test: as above
# [13] = target: bovine trypsin (bovine) (UniProt P00760); remark: listed apart in the source
molecule,measurement,setting,value
synthetic placental bikunin (7-64),Ki,[1],> 300 nM
synthetic placental bikunin (102-159),Ki,[2],15 nM
same,Ki,[3],15 nM
same,"trypsin inhibitory activity, specific activity (U/mg) of the purified refolded peptide",[4],300000 U/mg
recombinant placental bikunin (102-159) expressed in yeast SC101 (construct #1),inhibition of trypsin by yeast culture supernatant (applysate),[5],82%
B1,trypsin inhibitory activity (Units/OD 280) after Superdex 75,[6],24500 Units/OD 280
B2,Ki,[7],0.12 nM
same,Ki,[8],3 nM
same,Ki,[9],800 nM
same,"trypsin inhibitory activity, specific activity (U/OD) after C18 reverse-phase",[10],72200 U/OD
B3,Ki,[11],0.4 nM
same,Ki,[12],> 100 nM
same,"trypsin inhibitory activity, specific activity (U/mg) of the purified refolded peptide",[13],294000 U/mg
B4,inhibition of trypsin by yeast culture supernatant (applysate),[5],93%
B5,inhibition of trypsin by yeast culture supernatant (applysate),[5],25%
